Assays:
amyloid beta monomer = amyloid beta monomer (Homo sapiens, UniProt P05067); experiment: saturation binding/Scatchard
amyloid beta oligomers = amyloid beta oligomers (Homo sapiens, UniProt P05067); experiment: saturation binding/Scatchard
Chain of amyloid beta oligomers (P05067 672-713): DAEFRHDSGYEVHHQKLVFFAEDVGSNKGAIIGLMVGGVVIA

Chain of amyloid beta monomer (P05067 672-713): as above

- Kd (amyloid beta monomer): 19 µM
- Kd (amyloid beta oligomers): 0.012 µM
B1: BP (VEGF-derived peptide) (protein)
chain: MTDRQTDTAPSPSYHLLPGRRRTVDAAASRGQGPEPAPGGGVEGVGARGVALKLFVQLLGCSRFGGAVVRAGEAEPSGAARSASSGREEPQPEEGEEEEEKEEERGPQWRLGARKPGSWTGEAAVCADSAPAARAPQALARASGRGGRVARRGAEESGPPHSPSRRGSASRAGPGRASETMNFLLSWVHWSLALLLYLHHAKWSQAAPMAEGGGQNHHEVVKFMDVYQRSYCHPIETLVDIFQEYPDEIEYIFKPSCVPLMRCGGCCNDEGLECVPTEESNITMQIMRIKPHQGQHIGEMSFLQHNKCECRPKKDRARQEKKSVRGKGKGQKRKRKKSRYKSWSVPCGPCSERRKHLFVQDPQTCKCSCKNTDSRCKARQLELNERTCRCDKPRR

Source: paper PMC10497828 (2023)
